*1 amine or outer side, *2 acyl side, *3 side chain or, on linkers, in order; H or OH if unused. [ ]: non-standard residue; d: D form. The star is where a group is joined. Dnp = O=[N+]([O-])c1ccc(*)c([N+](=O)[O-])c1; C(Me) = CSC[C@H](N[*:1])C(=O)[*:2]
T1: human Gelatinase-A (human, UniProt P08253 110-660, limits assumed)
T1 sequence (looked up): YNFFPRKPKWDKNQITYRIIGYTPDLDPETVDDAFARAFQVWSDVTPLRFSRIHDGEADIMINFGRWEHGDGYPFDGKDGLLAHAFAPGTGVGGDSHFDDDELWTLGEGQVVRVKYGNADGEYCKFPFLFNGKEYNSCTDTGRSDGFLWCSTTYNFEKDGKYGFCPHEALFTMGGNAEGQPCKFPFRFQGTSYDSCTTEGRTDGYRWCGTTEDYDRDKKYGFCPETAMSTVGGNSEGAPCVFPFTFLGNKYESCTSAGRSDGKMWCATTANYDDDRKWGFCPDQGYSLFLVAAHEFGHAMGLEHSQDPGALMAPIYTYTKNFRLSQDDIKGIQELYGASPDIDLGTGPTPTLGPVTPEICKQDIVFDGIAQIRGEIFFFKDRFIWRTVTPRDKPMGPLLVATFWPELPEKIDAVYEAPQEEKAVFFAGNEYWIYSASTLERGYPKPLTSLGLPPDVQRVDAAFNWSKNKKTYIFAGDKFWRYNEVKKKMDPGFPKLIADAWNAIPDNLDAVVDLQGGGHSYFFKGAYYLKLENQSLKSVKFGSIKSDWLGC

T2: collagenase 1 (UniProt P03956 100-469, limits assumed)
T2 sequence (looked up): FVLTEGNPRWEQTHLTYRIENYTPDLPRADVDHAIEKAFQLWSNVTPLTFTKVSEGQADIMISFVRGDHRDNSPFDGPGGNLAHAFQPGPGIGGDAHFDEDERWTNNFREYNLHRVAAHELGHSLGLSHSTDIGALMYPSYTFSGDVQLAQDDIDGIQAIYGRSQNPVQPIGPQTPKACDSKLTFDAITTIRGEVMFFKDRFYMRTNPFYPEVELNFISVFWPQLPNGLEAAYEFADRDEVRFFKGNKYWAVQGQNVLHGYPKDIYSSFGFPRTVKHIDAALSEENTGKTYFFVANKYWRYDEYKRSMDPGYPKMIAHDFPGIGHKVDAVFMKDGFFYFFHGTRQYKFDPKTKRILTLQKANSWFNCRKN


How the values were obtained:
Experiment in all cases: cell-based or functional assay
human Gelatinase-A = target: T1, human Gelatinase-A
gelatinase B = gelatinase B (UniProt P14780 107-707, limits assumed)
collagenase 1 = target: T2, collagenase 1
stromelysin 1 = stromelysin 1 (UniProt P08254 100-477, limits assumed)
stromelysin 1, sequence (P08254 100-477 limits assumed): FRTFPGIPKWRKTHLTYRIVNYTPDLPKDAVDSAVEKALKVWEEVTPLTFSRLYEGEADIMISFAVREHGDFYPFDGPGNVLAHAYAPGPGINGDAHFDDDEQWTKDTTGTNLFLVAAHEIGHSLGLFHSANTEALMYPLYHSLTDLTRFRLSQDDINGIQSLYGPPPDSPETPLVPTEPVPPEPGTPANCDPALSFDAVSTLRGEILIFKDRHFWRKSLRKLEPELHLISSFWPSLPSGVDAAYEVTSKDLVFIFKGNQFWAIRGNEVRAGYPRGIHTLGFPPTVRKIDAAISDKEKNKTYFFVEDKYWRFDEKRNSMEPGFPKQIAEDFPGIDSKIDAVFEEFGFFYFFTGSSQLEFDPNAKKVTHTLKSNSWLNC

gelatinase B, sequence (P14780 107-707 limits assumed): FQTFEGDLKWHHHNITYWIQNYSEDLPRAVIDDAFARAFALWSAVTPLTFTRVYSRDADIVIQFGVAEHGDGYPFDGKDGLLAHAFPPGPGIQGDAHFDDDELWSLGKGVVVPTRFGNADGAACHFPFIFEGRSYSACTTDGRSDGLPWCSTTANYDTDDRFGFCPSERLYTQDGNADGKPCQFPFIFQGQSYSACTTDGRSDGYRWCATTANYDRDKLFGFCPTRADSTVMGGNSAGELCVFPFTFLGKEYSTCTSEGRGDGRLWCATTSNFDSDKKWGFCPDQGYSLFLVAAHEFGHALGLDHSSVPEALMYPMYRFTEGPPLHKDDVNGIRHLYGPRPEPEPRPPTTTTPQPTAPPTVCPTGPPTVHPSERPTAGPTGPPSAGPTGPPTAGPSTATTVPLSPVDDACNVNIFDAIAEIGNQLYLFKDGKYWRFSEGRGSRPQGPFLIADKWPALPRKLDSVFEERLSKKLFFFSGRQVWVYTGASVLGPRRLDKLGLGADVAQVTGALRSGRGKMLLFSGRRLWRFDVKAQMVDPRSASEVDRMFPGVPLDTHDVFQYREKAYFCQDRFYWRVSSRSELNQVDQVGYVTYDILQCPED

Binder	Selectivity v. Coll-3 (human Gelatinase-A) [unitless]	Selectivity v. Coll-3 (gelatinase B) [unitless]	Selectivity v. Coll-3 (collagenase 1) [unitless]	Selectivity v. Coll-3 (stromelysin 1) [unitless]	other results
Dnp-GPFGLKG-NH2 (SMILES CC(C)C[C@H](NC(=O)CNC(=O)[C@H](Cc1ccccc1)NC(=O)[C@@H]1CCCN1C(=O)CNc1ccc([N+](=O)[O-])cc1[N+](=O)[O-])C(=O)N[C@@H](CCCCN)C(=O)NCC(N)=O) [Dnp-GPFGLKG-NH2]	26	3	408	1380	–
Dnp-GPHPMRG-NH2 (SMILES CSCC[C@H](NC(=O)[C@@H]1CCCN1C(=O)[C@H](Cc1c[nH]cn1)NC(=O)[C@@H]1CCCN1C(=O)CNc1ccc([N+](=O)[O-])cc1[N+](=O)[O-])C(=O)N[C@@H](CCCNC(=N)N)C(=O)NCC(N)=O) [Dnp-GPHPMRG-NH2]	12	4	526	287	–
Dnp-GPLQMRG-NH2 (SMILES CSCC[C@H](NC(=O)[C@H](CCC(N)=O)NC(=O)[C@H](CC(C)C)NC(=O)[C@@H]1CCCN1C(=O)CNc1ccc([N+](=O)[O-])cc1[N+](=O)[O-])C(=O)N[C@@H](CCCNC(=N)N)C(=O)NCC(N)=O) [Dnp-GPLQMRG-NH2]	15	1	290	311	–
Dnp-PINLHG-NH2 (SMILES CC[C@H](C)[C@H](NC(=O)[C@@H]1CCCN1c1ccc([N+](=O)[O-])cc1[N+](=O)[O-])C(=O)N[C@@H](CC(N)=O)C(=O)N[C@@H](CC(C)C)C(=O)N[C@@H](Cc1c[nH]cn1)C(=O)NCC(N)=O) [Dnp-PINLHG-NH2]	9	4	101	824	–
Dnp-GPVNLHGR[C(Me)]-NH2 (SMILES CSC[C@H](NC(=O)[C@H](CCCNC(=N)N)NC(=O)CNC(=O)[C@H](Cc1c[nH]cn1)NC(=O)[C@H](CC(C)C)NC(=O)[C@H](CC(N)=O)NC(=O)[C@@H](NC(=O)[C@@H]1CCCN1C(=O)CNc1ccc([N+](=O)[O-])cc1[N+](=O)[O-])C(C)C)C(N)=O) [Dnp-…(Me)-NH2]	9	2	2120	510	–
Dnp-GPLSISG-NH2 (SMILES CC[C@H](C)[C@H](NC(=O)[C@H](CO)NC(=O)[C@H](CC(C)C)NC(=O)[C@@H]1CCCN1C(=O)CNc1ccc([N+](=O)[O-])cc1[N+](=O)[O-])C(=O)N[C@@H](CO)C(=O)NCC(N)=O) [Dnp-GPLSISG-NH2]	7	1	11	–	–
Dnp-GPVNLHG[C(Me)]-NH2 (SMILES CSC[C@H](NC(=O)CNC(=O)[C@H](Cc1c[nH]cn1)NC(=O)[C@H](CC(C)C)NC(=O)[C@H](CC(N)=O)NC(=O)[C@@H](NC(=O)[C@@H]1CCCN1C(=O)CNc1ccc([N+](=O)[O-])cc1[N+](=O)[O-])C(C)C)C(N)=O) [Dnp-GPVNLHGC(Me)-NH2]	15	3	1390	770	–
Dnp-GPSELKG-NH2 (SMILES CC(C)C[C@H](NC(=O)[C@H](CCC(=O)O)NC(=O)[C@H](CO)NC(=O)[C@@H]1CCCN1C(=O)CNc1ccc([N+](=O)[O-])cc1[N+](=O)[O-])C(=O)N[C@@H](CCCCN)C(=O)NCC(N)=O) [Dnp-GPSELKG-NH2]	7	4	470	831	–
Dnp-V[C(Me)]PKGITS[C(Me)]VFR-NH2 (SMILES CC[C@H](C)[C@H](NC(=O)CNC(=O)[C@H](CCCCN)NC(=O)[C@@H]1CCCN1C(=O)[C@H](CSC)NC(=O)[C@@H](Nc1ccc([N+](=O)[O-])cc1[N+](=O)[O-])C(C)C)C(=O)N[C@H](C(=O)N[C@@H](CO)C(=O)N[C@@H](CSC)C(=O)N[C@H](C(=O)N[C@@H](Cc1ccccc1)C(=O)N[C@@H](CCCNC(=N)N)C(N)=O)C(C)C)[C@@H](C)O) [Dnp-VC(Me)PKGITSC(Me)VFR-NH2]	7	1	215	835	–
Dnp-GPMSYNG-NH2 (SMILES CSCC[C@H](NC(=O)[C@@H]1CCCN1C(=O)CNc1ccc([N+](=O)[O-])cc1[N+](=O)[O-])C(=O)N[C@@H](CO)C(=O)N[C@@H](Cc1ccc(O)cc1)C(=O)N[C@@H](CC(N)=O)C(=O)NCC(N)=O) [Dnp-GPMSYNG-NH2]	5	3	201	–	–
Dnp-PLGMRG-NH2 (SMILES CSCC[C@H](NC(=O)CNC(=O)[C@H](CC(C)C)NC(=O)[C@@H]1CCCN1c1ccc([N+](=O)[O-])cc1[N+](=O)[O-])C(=O)N[C@@H](CCCNC(=N)N)C(=O)NCC(N)=O) [Dnp-PLGMRG-NH2]	2	1	73	–	–
Dnp-GPINLHG-NH2 (SMILES CC[C@H](C)[C@H](NC(=O)[C@@H]1CCCN1C(=O)CNc1ccc([N+](=O)[O-])cc1[N+](=O)[O-])C(=O)N[C@@H](CC(N)=O)C(=O)N[C@@H](CC(C)C)C(=O)N[C@@H](Cc1c[nH]cn1)C(=O)NCC(N)=O) [Dnp-GPINLHG-NH2]	28	15	180	1110	–
Dnp-PSGIHL-NH2 (SMILES CC[C@H](C)[C@H](NC(=O)CNC(=O)[C@H](CO)NC(=O)[C@@H]1CCCN1c1ccc([N+](=O)[O-])cc1[N+](=O)[O-])C(=O)N[C@@H](Cc1c[nH]cn1)C(=O)N[C@@H](CC(C)C)C(N)=O) [Dnp-PSGIHL-NH2]	2	2	1320	–	–
Dnp-DEGPMGLK[C(Me)]YLG-NH2 (SMILES CSCC[C@H](NC(=O)[C@@H]1CCCN1C(=O)CNC(=O)[C@H](CCC(=O)O)NC(=O)[C@H](CC(=O)O)Nc1ccc([N+](=O)[O-])cc1[N+](=O)[O-])C(=O)NCC(=O)N[C@@H](CC(C)C)C(=O)N[C@@H](CCCCN)C(=O)N[C@@H](CSC)C(=O)N[C@@H](Cc1ccc(O)cc1)C(=O)N[C@@H](CC(C)C)C(=O)NCC(N)=O) [Dnp-…(Me)YLG-NH2]	9	4	452	468	–
Dnp-GPLGMRG-NH2 (SMILES CSCC[C@H](NC(=O)CNC(=O)[C@H](CC(C)C)NC(=O)[C@@H]1CCCN1C(=O)CNc1ccc([N+](=O)[O-])cc1[N+](=O)[O-])C(=O)N[C@@H](CCCNC(=N)N)C(=O)NCC(N)=O) [Dnp-GPLGMRG-NH2]	–	–	–	–	Selectivity v. Coll-3, + 1:1 Gelatin (human Gelatinase-A): 41 unitless; Selectivity v. Coll-3, + 1:4 Gelatin (human Gelatinase-A): 46 unitless; Selectivity v. Coll-3, + 1:16 Gelatin (human Gelatinase-A): 84 unitless; Selectivity v. Coll-3, + 1:64 Gelatin (human Gelatinase-A): 69 unitless; Selectivity v. Coll-3, + 1:256 Gelatin (human Gelatinase-A): 73 unitless; Selectivity v. Coll-3, + H2O (human Gelatinase-A): 6 unitless; Selectivity v. Coll-3, + 1:1 Gelatin (gelatinase B): 5 unitless; Selectivity v. Coll-3, + 1:4 Gelatin (gelatinase B): 5 unitless; Selectivity v. Coll-3, + 1:16 Gelatin (gelatinase B): 13 unitless; Selectivity v. Coll-3, + 1:64 Gelatin (gelatinase B): 13 unitless; Selectivity v. Coll-3, + 1:256 Gelatin (gelatinase B): 18 unitless; Selectivity v. Coll-3, + H2O (gelatinase B): 2 unitless; Selectivity v. Coll-3, + 1:1 Gelatin (collagenase 1): 91 unitless; Selectivity v. Coll-3, + 1:4 Gelatin (collagenase 1): 96 unitless; Selectivity v. Coll-3, + 1:16 Gelatin (collagenase 1): 215 unitless; Selectivity v. Coll-3, + 1:64 Gelatin (collagenase 1): 236 unitless; Selectivity v. Coll-3, + 1:256 Gelatin (collagenase 1): 378 unitless; Selectivity v. Coll-3, + H2O (collagenase 1): 245 unitless
Dnp-GPRPFRG-NH2 (SMILES N=C(N)NCCC[C@H](NC(=O)[C@H](Cc1ccccc1)NC(=O)[C@@H]1CCCN1C(=O)[C@H](CCCNC(=N)N)NC(=O)[C@@H]1CCCN1C(=O)CNc1ccc([N+](=O)[O-])cc1[N+](=O)[O-])C(=O)NCC(N)=O) [Dnp-GPRPFRG-NH2]	9	4	4200	–	–
